We go through 2 proteins from article doi:10.1101/2024.10.11.617635 (bioRxiv, 2024).

One may read the stoichiometry N as a count of units in the complex or per binding partner.

The data set deals with the molecule itself.

B1: NADK (non-methylated; construct not stated) (enzyme, human, UniProt O95544 1-446, looked up)
chain: MEMEQEKMTMNKELSPDAAAYCCSACHGDETWSYNHPIRGRAKSRSLSASPALGSTKEFRRTRSLHGPCPVTTFGPKACVLQNPQTIMHIQDPASQRLTWNKSPKSVLVIKKMRDASLLQPFKELCTHLMEENMIVYVEKKVLEDPAIASDESFGAVKKKFCTFREDYDDISNQIDFIICLGGDGTLLYASSLFQGSVPPVMAFHLGSLGFLTPFSFENFQSQVTQVIEGNAAVVLRSRLKVRVVKELRGKKTAVHNGLGENGSQAAGLDMDVGKQAMQYQVLNEVVIDRGPSSYLSNVDVYLDGHLITTVQGDGVIVSTPTGSTAYAAAAGASMIHPNVPAIMITPICPHSLSFRPIVVPAGVELKIMLSPEARNTAWVSFDGRKRQEIRHGDSISITTSCYPLPSICVRDPVSDWFESLAQCLHWNVRKKQAHFEEEEEEEEEG
For the protein B1, the “stoichiometry N” value stood at 4.

B2: methylated NADK (construct not stated) (enzyme, human, UniProt O95544 1-446, looked up)
chain: B1 chain
modifications: arginine methylation (the paper's sites are R39, R41 and R45, mono- and di-methylated); extent not stated
With B2, the “stoichiometry N” value turned out to be 4.
